According to article PMC7477763:

Target: B-Ub-MERS27-VME (UniProt P0CG48)
Chain of UniProt P0CG48 (P0CG48 whole entry, looked up): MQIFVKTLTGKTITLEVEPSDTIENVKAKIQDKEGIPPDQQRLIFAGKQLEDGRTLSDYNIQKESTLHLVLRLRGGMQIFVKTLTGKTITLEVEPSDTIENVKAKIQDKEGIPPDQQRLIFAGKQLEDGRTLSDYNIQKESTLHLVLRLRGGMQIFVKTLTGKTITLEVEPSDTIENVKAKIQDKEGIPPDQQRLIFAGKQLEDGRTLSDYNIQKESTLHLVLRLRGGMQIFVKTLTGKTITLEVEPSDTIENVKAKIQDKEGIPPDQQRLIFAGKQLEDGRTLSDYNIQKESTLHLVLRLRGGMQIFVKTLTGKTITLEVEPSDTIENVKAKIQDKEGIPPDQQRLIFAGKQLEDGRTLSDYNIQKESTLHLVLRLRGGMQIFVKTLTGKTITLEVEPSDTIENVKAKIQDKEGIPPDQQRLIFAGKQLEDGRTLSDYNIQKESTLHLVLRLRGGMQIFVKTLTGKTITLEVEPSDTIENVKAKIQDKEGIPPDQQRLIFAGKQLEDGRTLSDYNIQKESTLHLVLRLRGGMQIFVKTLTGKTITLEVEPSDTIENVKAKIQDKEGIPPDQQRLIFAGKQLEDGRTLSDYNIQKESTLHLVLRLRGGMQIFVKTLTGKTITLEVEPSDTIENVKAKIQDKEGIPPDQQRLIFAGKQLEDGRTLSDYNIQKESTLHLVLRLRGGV

Middle East respiratory syndrome papain-like protease (MERS PLpro), recombinant
kobs/I: 22 144 ± 1431 M^–1 s^–1
